Patent US20140206628A1 (University of Washington, published 2014)

Target: A/WSN/1933 (H1N1) hemagglutinin (Influenza A virus A/WSN/1933 (H1N1))
Test: gel filtration

B1: HB36.3 (Asp47Ser, Ala60Val) (designed binder)
chain: MSNAMDGQQLNRLLLEWIGAWDPFGLGKDAYDVEAEAVLQAVYETESAFDLAMRIMWIYVFAFNRPIPFPHAQKLARRLLELKQAASSPLPLE
binding result: binds
